Laboratory results taken from patent publication US20210246166A1 (Bayer, published 2021).
Numbered stars: 1 amine (or outer) side, 2 acyl side, 3 side chain; on linkers, the order of the positions; unused ones are H or OH. Bridge positions count the residues as written; N and C are the ends. Square brackets hold non-standard residues; d marks the D form. Ends that are not written are not given here. X17 = 2‑((1S,2S)-1-(Amino)-2-methylbutyl)‑1,3‑oxazole‑4‑carboxylic acid, CC[C@H](C)[C@H](N[*:1])c1nc(C(=O)[*:2])co1; PEG9(31 atoms) = 1-amino-3,6,9,12,15,18,21,24,27-nonaoxatriacontan-30-oic acid; Pro(4-spirocPr) = O=C(O)[C@@H]1CC2(CC2)CN1; Oic = O=C(O)[C@@H]1C[C@@H]2CCCC[C@@H]2N1; NMeI = CC[C@H](C)[C@H](NC)C(=O)O; tBuAla = CC(C)(C)C[C@H](N)C(=O)O; PEG4 = NCCOCCOCCOCCOCCC(=O)O; Pen = CC(C)(S)[C@H](N)C(=O)O; NMeC = CN[C@@H](CS)C(=O)O; NMeA = CN[C@@H](C)C(=O)O; Sar = CNCC(=O)O

T1: recombinant human MASP1 active protease (amino acids 297-699, C-terminal His Tag) (human, UniProt P48740 297-699)
T1 sequence: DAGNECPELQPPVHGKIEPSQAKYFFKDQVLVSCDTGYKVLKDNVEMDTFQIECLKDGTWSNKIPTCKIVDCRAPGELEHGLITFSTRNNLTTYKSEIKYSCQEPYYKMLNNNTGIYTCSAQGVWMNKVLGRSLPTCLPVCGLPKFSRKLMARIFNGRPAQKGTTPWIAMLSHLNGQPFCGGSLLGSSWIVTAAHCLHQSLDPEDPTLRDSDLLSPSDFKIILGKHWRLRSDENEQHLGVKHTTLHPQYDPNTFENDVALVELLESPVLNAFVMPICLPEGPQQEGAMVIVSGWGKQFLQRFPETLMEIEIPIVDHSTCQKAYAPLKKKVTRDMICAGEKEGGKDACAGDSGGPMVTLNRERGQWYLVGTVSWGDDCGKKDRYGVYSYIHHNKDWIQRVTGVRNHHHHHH


What was measured:
[1] = target: T1, recombinant human MASP1 active protease …; assay: cell-based or functional assay
[2] = target: recombinant human MASP2 active protease (amino acids 297-686, C-terminal His Tag) (human, UniProt O00187 297-686); assay: cell-based or functional assay
Chain of recombinant human MASP2 active protease (amino acids 297-686, C-terminal His Tag) (O00187 other isoform, or with tags, fused parts or gaps limits assumed): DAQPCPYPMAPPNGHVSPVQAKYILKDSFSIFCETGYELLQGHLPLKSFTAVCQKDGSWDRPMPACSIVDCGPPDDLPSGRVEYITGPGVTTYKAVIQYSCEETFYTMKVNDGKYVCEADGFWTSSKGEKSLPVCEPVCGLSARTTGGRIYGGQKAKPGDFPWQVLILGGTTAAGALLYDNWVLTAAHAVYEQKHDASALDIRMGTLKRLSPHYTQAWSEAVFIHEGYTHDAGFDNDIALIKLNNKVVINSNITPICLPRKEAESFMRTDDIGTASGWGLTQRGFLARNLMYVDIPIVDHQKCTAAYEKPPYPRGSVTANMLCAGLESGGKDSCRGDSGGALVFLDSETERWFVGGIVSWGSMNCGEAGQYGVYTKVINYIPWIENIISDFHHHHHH

| human MASP1 IC50 [1] [nM] | human MASP2 IC50 [2] [nM] | Binder |
| --- | --- | --- |
| 4.65 | 316 | AICSRSLP[Oic]ICIPD-OH (disulfide 3-11; N-terminus assumed; SMILES CC[C@H](C)[C@H](NC(=O)[C@H](C)N)C(=O)N[C@H]1CSSC[C@@H](C(=O)N[C@H](C(=O)N2CCC[C@H]2C(=O)N[C@@H](CC(=O)O)C(=O)O)[C@@H](C)CC)NC(=O)[C@H]([C@@H](C)CC)NC(=O)[C@@H]2C[C@@H]3CCCC[C@@H]3N2C(=O)[C@@H]2CCCN2C(=O)[C@H](CC(C)C)NC(=O)[C@H](CO)NC(=O)[C@H](CCCNC(=N)N)NC(=O)[C@H](CO)NC1=O) [AIC+SRSLP-(Oic)-IC+IPD-OH] |
| 1.4 | 62 | AICSRS[tBuAla]PPI[Pen]IP[dE]-NH2 (disulfide 3-11; N-terminus assumed; SMILES CC[C@H](C)[C@H](NC(=O)[C@H](C)N)C(=O)N[C@H]1CSSC(C)(C)[C@@H](C(=O)N[C@H](C(=O)N2CCC[C@H]2C(=O)N[C@H](CCC(=O)O)C(N)=O)[C@@H](C)CC)NC(=O)[C@H]([C@@H](C)CC)NC(=O)[C@@H]2CCCN2C(=O)[C@@H]2CCCN2C(=O)[C@H](CC(C)(C)C)NC(=O)[C@H](CO)NC(=O)[C@H](CCCNC(=N)N)NC(=O)[C@H](CO)NC1=O) [AIC+SRS-((tBu)A)-PPI-(Pen)+IPe-NH2] |
| 1.33 | 18 | AICSRSLP[Pro(4-spirocPr)]I[Pen]IPD-NH2 (disulfide 3-11; N-terminus assumed; SMILES CC[C@H](C)[C@H](NC(=O)[C@H](C)N)C(=O)N[C@H]1CSSC(C)(C)[C@@H](C(=O)N[C@H](C(=O)N2CCC[C@H]2C(=O)N[C@@H](CC(=O)O)C(N)=O)[C@@H](C)CC)NC(=O)[C@H]([C@@H](C)CC)NC(=O)[C@@H]2CC3(CC3)CN2C(=O)[C@@H]2CCCN2C(=O)[C@H](CC(C)C)NC(=O)[C@H](CO)NC(=O)[C@H](CCCNC(=N)N)NC(=O)[C@H](CO)NC1=O) [AIC+SRSLP-((6S)-5-Azaspiro[2.4]heptane-6-carboxylic acid)-I-(Pen)+IPD-NH2] |
| 1.4 | 40 | [NMeA]ICSRS[tBuAla]P[Oic]I[Pen]IP-NH2 (disulfide 3-11; N-terminus assumed; SMILES CC[C@H](C)[C@H](NC(=O)[C@H](C)NC)C(=O)N[C@H]1CSSC(C)(C)[C@@H](C(=O)N[C@H](C(=O)N2CCC[C@H]2C(N)=O)[C@@H](C)CC)NC(=O)[C@H]([C@@H](C)CC)NC(=O)[C@@H]2C[C@@H]3CCCC[C@@H]3N2C(=O)[C@@H]2CCCN2C(=O)[C@H](CC(C)(C)C)NC(=O)[C@H](CO)NC(=O)[C@H](CCCNC(=N)N)NC(=O)[C@H](CO)NC1=O) [((N-Me)A)-IC+SRS-((tBu)A)-P-(Oic)-I-(Pen)+IP-NH2] |
| 1.3 | 62 | AICSRS[tBuAla]P[Oic]I[Pen]IPD-OH (disulfide 3-11; N-terminus assumed; SMILES CC[C@H](C)[C@H](NC(=O)[C@H](C)N)C(=O)N[C@H]1CSSC(C)(C)[C@@H](C(=O)N[C@H](C(=O)N2CCC[C@H]2C(=O)N[C@@H](CC(=O)O)C(=O)O)[C@@H](C)CC)NC(=O)[C@H]([C@@H](C)CC)NC(=O)[C@@H]2C[C@@H]3CCCC[C@@H]3N2C(=O)[C@@H]2CCCN2C(=O)[C@H](CC(C)(C)C)NC(=O)[C@H](CO)NC(=O)[C@H](CCCNC(=N)N)NC(=O)[C@H](CO)NC1=O) [AIC+SRS-((tBu)A)-P-(Oic)-I-(Pen)+IPD-OH] |
| 3.75 | 195 | [NMeA]ICSRSLP[Oic]I[Pen]I-NH2 (disulfide 3-11; N-terminus assumed; SMILES CC[C@H](C)[C@H](NC(=O)[C@H]1NC(=O)[C@H]([C@@H](C)CC)NC(=O)[C@@H]2C[C@@H]3CCCC[C@@H]3N2C(=O)[C@@H]2CCCN2C(=O)[C@H](CC(C)C)NC(=O)[C@H](CO)NC(=O)[C@H](CCCNC(=N)N)NC(=O)[C@H](CO)NC(=O)[C@@H](NC(=O)[C@@H](NC(=O)[C@H](C)NC)[C@@H](C)CC)CSSC1(C)C)C(N)=O) [((N-Me)A)-IC+SRSLP-(Oic)-I-(Pen)+I-NH2] |
| 1.4 | 720 | AICSRS[tBuAla]PPI[NMeC][X17]D-NH2 (disulfide 3-11; N-terminus assumed; SMILES CC[C@H](C)[C@H](NC(=O)[C@H](C)N)C(=O)N[C@H]1CSSC[C@@H](C(=O)N[C@H](c2nc(C(=O)N[C@@H](CC(=O)O)C(N)=O)co2)[C@@H](C)CC)N(C)C(=O)[C@H]([C@@H](C)CC)NC(=O)[C@@H]2CCCN2C(=O)[C@@H]2CCCN2C(=O)[C@H](CC(C)(C)C)NC(=O)[C@H](CO)NC(=O)[C@H](CCCNC(=N)N)NC(=O)[C@H](CO)NC1=O) |
| 3.7 | 590 | [Sar][NMeI]CSRS[tBuAla]PPI[Pen]IP-NH2 (disulfide 3-11; N-terminus assumed; SMILES CC[C@H](C)[C@@H]1NC(=O)[C@@H]2CCCN2C(=O)[C@@H]2CCCN2C(=O)[C@H](CC(C)(C)C)NC(=O)[C@H](CO)NC(=O)[C@H](CCCNC(=N)N)NC(=O)[C@H](CO)NC(=O)[C@@H](NC(=O)[C@H]([C@@H](C)CC)N(C)C(=O)CNC)CSSC(C)(C)[C@@H](C(=O)N[C@H](C(=O)N2CCC[C@H]2C(N)=O)[C@@H](C)CC)NC1=O) [((N-Me)G)-((N-Me)I)-C+SRS-((tBu)A)-PPI-(Pen)+IP-NH2] |
| 1.43 | 98 | [NMeA]ICSRS[tBuAla]PPI[Pen]IPD-NH2 (disulfide 3-11; N-terminus assumed; SMILES CC[C@H](C)[C@H](NC(=O)[C@H](C)NC)C(=O)N[C@H]1CSSC(C)(C)[C@@H](C(=O)N[C@H](C(=O)N2CCC[C@H]2C(=O)N[C@@H](CC(=O)O)C(N)=O)[C@@H](C)CC)NC(=O)[C@H]([C@@H](C)CC)NC(=O)[C@@H]2CCCN2C(=O)[C@@H]2CCCN2C(=O)[C@H](CC(C)(C)C)NC(=O)[C@H](CO)NC(=O)[C@H](CCCNC(=N)N)NC(=O)[C@H](CO)NC1=O) [((N-Me)A)-IC+SRS-((tBu)A)-PPI-(Pen)+IPD-NH2] |
| 3.7 | 56 | TICSRS[tBuAla]PPI[Pen]IPD-OH (disulfide 3-11; N-terminus assumed; SMILES CC[C@H](C)[C@H](NC(=O)[C@@H](N)[C@@H](C)O)C(=O)N[C@H]1CSSC(C)(C)[C@@H](C(=O)N[C@H](C(=O)N2CCC[C@H]2C(=O)N[C@@H](CC(=O)O)C(=O)O)[C@@H](C)CC)NC(=O)[C@H]([C@@H](C)CC)NC(=O)[C@@H]2CCCN2C(=O)[C@@H]2CCCN2C(=O)[C@H](CC(C)(C)C)NC(=O)[C@H](CO)NC(=O)[C@H](CCCNC(=N)N)NC(=O)[C@H](CO)NC1=O) [TIC+SRS-((tBu)A)-PPI-(Pen)+IPD-OH] |
| 1.36 | 100 | RICSRS[tBuAla]PPI[NMeC]IPD-NH2 (disulfide 3-11; N-terminus assumed; SMILES CC[C@H](C)[C@H](NC(=O)[C@@H](N)CCCNC(=N)N)C(=O)N[C@H]1CSSC[C@@H](C(=O)N[C@H](C(=O)N2CCC[C@H]2C(=O)N[C@@H](CC(=O)O)C(N)=O)[C@@H](C)CC)N(C)C(=O)[C@H]([C@@H](C)CC)NC(=O)[C@@H]2CCCN2C(=O)[C@@H]2CCCN2C(=O)[C@H](CC(C)(C)C)NC(=O)[C@H](CO)NC(=O)[C@H](CCCNC(=N)N)NC(=O)[C@H](CO)NC1=O) [RIC+SRS-((tBu)A)-PPI-((N-Me)C)+IPD-NH2] |
| 1.3 | 87 | [2‑(Pyrrolidine)acetyl]ICSRS[tBuAla]PPI[Pen]IPD-NH2 (disulfide 3-11) [(2-(Pyrrolidine)acetyl)-IC+SRS-((tBu)A)-PPI-(Pen)+IPD-NH2] |
| 1.3 | 28 | [Sar]ICSRS[tBuAla]PPI[Pen]IP[PEG4]-NH2 (disulfide 3-11; N-terminus assumed; SMILES CC[C@H](C)[C@H](NC(=O)CNC)C(=O)N[C@H]1CSSC(C)(C)[C@@H](C(=O)N[C@H](C(=O)N2CCC[C@H]2C(=O)NCCOCCOCCOCCOCCC(N)=O)[C@@H](C)CC)NC(=O)[C@H]([C@@H](C)CC)NC(=O)[C@@H]2CCCN2C(=O)[C@@H]2CCCN2C(=O)[C@H](CC(C)(C)C)NC(=O)[C@H](CO)NC(=O)[C@H](CCCNC(=N)N)NC(=O)[C@H](CO)NC1=O) [((N-Me)G)-IC+SRS-((tBu)A)-PPI-(Pen)+IP-(PEG3(16atoms))-NH2] |
| 1.4 | 53 | AICSRS[tBuAla]PPI[Pen]IP[dN]-NH2 (disulfide 3-11; N-terminus assumed; SMILES CC[C@H](C)[C@H](NC(=O)[C@H](C)N)C(=O)N[C@H]1CSSC(C)(C)[C@@H](C(=O)N[C@H](C(=O)N2CCC[C@H]2C(=O)N[C@H](CC(N)=O)C(N)=O)[C@@H](C)CC)NC(=O)[C@H]([C@@H](C)CC)NC(=O)[C@@H]2CCCN2C(=O)[C@@H]2CCCN2C(=O)[C@H](CC(C)(C)C)NC(=O)[C@H](CO)NC(=O)[C@H](CCCNC(=N)N)NC(=O)[C@H](CO)NC1=O) [AIC+SRS-((tBu)A)-PPI-(Pen)+IPn-NH2] |
| 3.7 | 100 | [Sar]ICSRSLP[Oic]I[Pen]IP[PEG9(31 atoms)]-NH2 (disulfide 3-11) [((N-Me)G)-IC+SRSLP-(Oic)-I-(Pen)+IP-(PEG9(31 atoms))-NH2] |
